Measured values from patent publication US20240261333A1, “NOVEL TARGETS FOR ENHANCING ANTI-TUMOR IMMUNITY” (THE BROAD INSTITUTE, INC., priority 2021, published 2024).

T1: B3GNT2 (Homo sapiens, UniProt Q9NY97)
T1 construct: The respective ORFs of candidate genes [CD274 (NM_014143), MCL1 (NM_021960), JUNB (NM_002229), and B3GNT2 (NM_006577)] were synthesized; expressed in transfected cells; host or cells: A375 melanoma cells (lentiviral ORF overexpression)
T1 sequence (Q9NY97 1-397): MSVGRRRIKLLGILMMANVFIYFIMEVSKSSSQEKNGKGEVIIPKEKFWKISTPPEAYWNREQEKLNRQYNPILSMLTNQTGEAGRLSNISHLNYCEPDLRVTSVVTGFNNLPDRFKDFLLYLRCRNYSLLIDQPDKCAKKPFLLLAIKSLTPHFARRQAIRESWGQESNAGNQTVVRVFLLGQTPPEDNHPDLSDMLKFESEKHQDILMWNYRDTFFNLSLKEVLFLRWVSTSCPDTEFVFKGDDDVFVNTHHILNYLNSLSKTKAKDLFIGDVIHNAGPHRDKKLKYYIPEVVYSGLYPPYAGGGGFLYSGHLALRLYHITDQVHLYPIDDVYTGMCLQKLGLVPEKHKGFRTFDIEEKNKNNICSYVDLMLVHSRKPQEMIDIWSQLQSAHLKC


Biological target: T1, B3GNT2
Test: Co-IP of FLAG-tagged B3GNT2 followed by mass spectrometry
Format: cell-based
Parameters: C-term IgG / C-term flag: unit not given here
Settings: Co-IP followed by mass spectrometry of B3GNT2; for C-term flag / C-term IgG: C-term tag; for C-term flag / N-term FLAG: FLAG pull-down; for C-term IgG / N-term IgG: IgG pull-down; for N-term FLAG / N-term IgG: N-term tag
Protocol: Cells were plated in 10-cm cell culture dishes and grown to 60-80% confluency. For each condition, two biological replicates were harvested for co-IP. Cells were washed with PBS and 4 mL of lysis buffer (20 mM HEPES, 1% Triton X-100, 150 mM NaCl, 1 mM EDTA, and 10% glycerol) containing protease inhibitor cocktail was added. Cells were scraped and lysate was incubated at 4° C. under rotary agitation for 1 h. Lysate was centrifuged at 14,000×g for 10 min at 4° C. Supernatant was transferred to a new tube and an aliquot was taken as the input. […] For Western blots, 10 μg/mL Chicken Anti-FLAG (Aves labs ET-DY100) and IgY control (R&D Systems AB-101-C) antibodies were biotinylated (Thermo Fisher Scientific 90407) and added to the respective conditions. Lysates with antibodies were incubated at 4° C. under rotary agitation overnight. For each mL of lysate, 50 μL of Pierce Protein A/G Magnetic Beads (Mass spectrometry; Thermo Fisher Scientific 88803) or Pierce Streptavidin Magnetic Beads (Western blot; Thermo Fisher Scientific 88817) was washed twice with lysis buffer. Lysates with antibodies were added to the beads and incubated at 4° C. under rotary agitation for 4 h. Beads were washed with lysis buffer 3 times and resuspended in lysis buffer for storage. […] This solution was subjected to solid phase extraction to concentrate the peptides and remove unwanted reagents followed by injection onto a Shimadzu HPLC with fraction collector. Eight fractions were collected and after concentration were injected on a Waters NanoAcquity HPLC equipped with a self-packed Aeris 3 μm C18 analytical column 0.075 mm by 20 cm, (Phenomenex). Peptides were eluted using standard reverse-phase gradients. The effluent from the column was analyzed using a Thermo Orbitrap Elite mass spectrometer (nanospray configuration) operated in a data dependent manner for 54 minutes. […] Scaffold Q+S (Proteome Software) was used to provide consensus reports for the identified proteins.

Row | Molecule | C-term flag | C-term IgG | N-term FLAG | N-term IgG
1 | TAGLN (protein) ANKGPSYGMSREVQSKIEKKYDEELEERLVEWIIVQCGPDVGRPDRGRLGFQVWLKNGVILSKLVNSLYPDGSKPVKVPENPPSMVFKQMEQVAQFLKAAEDYGVIKTDMFQTVDLFEGKDMAAVQRTLMALGSLAVTKNDGHYRGDPNWFMKKAQEHKREFTESQLQEGKHVIGLQMGSNRGASQAGMTGYGRPRQIIS | 3 | 0 | 2 | 0
2 | IL13RA2 (protein) DTEIKVNPPQDFEIVDPGYLGYLYLQWQPPLSLDHFKECTVEYELKYRNIGSETWKTIITKNLHYKDGFDLNKGIEAKIHTLLPWQCTNGSEVQSSWAETTYWISPQGIPETKVQDMDCVYYNWQYLLCSWKPGIGVLLDTNYNLFYWYEGLDHALQCVDYIKADGQNIGCRFPYLEASDYKDFYICVNGSSENKPIRSSYFTFQLQNIVKPLPPVYLTFTRESSCEIKLKWSIPLGPIPARCFDYEIEIREDDTTLVTATVENETYTLKTTNETRQLCFVVRSKVNIYCSDDGIWSEWSDKQCWEGEDLSKKTLLRFWLPFGFILILVIFVTGLLLRKPNTYPKMIPEFFCDT | 2 | 0 | 3 | 0
3 | IMMT (protein) STSGSSGLTTGKIAGAGLLFVGGGIGGTILYAKWDSHFRESVEKTIPYSDKLFEMVLGPAAYNVPLPKKSIQSGPLKISSVSEVMKESKQPASQLQKQKGDTPASATAPTEAAQIISAAGDTLSVPAPAVQPEESLKTDHPEIGEGKPTPALSEASSSSIRERPPEEVAARLAQQEKQEQVKIESLAKSLEDALRQTASVTLQAIAAQNAAVQAVNAHSNILKAAMDNSEIAGEKKSAQWRTVEGALKERRKAVDEAADALLKAKEELEKMKSVIENAKKKEVAGAKPHITAAEGKLHNMIVDLDNVVKKVQAAQSEAKVVSQYHELVVQARDDFKRELDSITPEVLPGWKGMSVSDLADKLSTDDLNSLIAHAHRRIDQLNRELAEQKATEKQHITLALEKQKLEEKRAFDSAVAKALEHHRSEIQAEQDRKIEEVRDAMENEMRTQLRRQAAAHTDHLRDVLRVQEQELKSEFEQNLSEKLSEQELQFRRLSQEQVDNFTLDINTAYARLRGIEQAVQSHAVAEEEARKAHQLWLSVEALKYSMKTSSAETPTIPLGSAVEAIKANCSDNEFTQALTAAIPPESLTRGVYSEETLRARFYAVQKLARRVAMIDETRNSLYQYFLSYLQSLLLFPPQQLKPPPELCPEDINTFKLLSYASYCIEHGDLELAAKFVNQLKGESRRVAQDWLKEARMTLETKQIVEILTAYASAVGIGTTQVQPE | 26 | 16 | 23 | 17
4 | TXN (protein) VKQIESKTAFQEALDAAGDKLVVVDFSATWCGPCKMIKPFFHSLSEKYSNVIFLEVDVDDCQDVASECEVKCMPTFQFFKKGQKVGEFSGANKEKLEATINELV | 3 | 0 | 3 | 3
5 | POF1B (protein) MSSSYWSETSSSSCGTQQLPEVLQCQPQHYHCYHQSSQAQQPPEKNVVYERVRTYSGPMNKVVQALDPFNSREVLSPLKTTSSYQNLVWSDHSQELHSPTLKISTCAPSTLHITQNTEQELHSPTVKLTTYPQTTIRKYVVQNPEQEPLSQFLRGSHFFPGNNVIYEKTIRKVEKLNTDQGCHPQAQCHHHIIQQPQVIHSAHWQQPDSSQQIQAITGNNPISTHIGNELCHSGSSQICEQVIIQDDGPEKLDPRYFGELLADLSRKNTDLYHCLLEHLQRIGGSKQDFESTDESEDIESLIPKGLSEFTKQQIRYILQMRGMSDKSLRLVLSTFSNIREELGHLQNDMTSLENDKMRLEKDLSFKDTQLKEYEELLASVRANNHQQQQGLQDSSSKCQALEENNLSLRHTLSDMEYRLKELEYCKRNLEQENQNLRMQVSETCTGPMLQAKMDEIGNHYTEMVKNLRMEKDREICRLRSQLNQYHKDVSKREGSCSDFQFKLHELTSLLEEKDSLIKRQSEELSKLRQEIYSSHNQPSTGGRTTITTKKYRTQYPILGLLYDDYEYIPPGSETQTIVIEKTEDKYTCVSSLGHF | 0 | 0 | 5 | 0
6 | KCTD5 (protein) AENHCELLSPARGGIGAGLGGGLCRRCSAGLGALAQRPGSVSKWVRLNVGGTYFLTTRQTLCRDPKSFLYRLCQADPDLDSDKDETGAYLIDRDPTYFGPVLNYLRHGKLVINKDLAEEGVLEEAEFYNITSLIKLVKDKIRERDSKTSQVPVKHVYRVLQCQEEELTQMVSTMSDGWKFEQLVSIGSSYNYGNEDQAEFLCVVSKELHNTPYGTASEPSEKAKILQERGSRM | 3 | 0 | 2 | 0
7 | CDSN (protein) KSIGTFSDPCKDPTRITSPNDPCLTGKGDSSGFSSYSGSSSSGSSISSARSSGGGSSGSSSGSSIAQGGSAGSFKPGTGYSQVSYSSGSGSSLQGASGSSQLGSSSSHSGNSGSHSGSSSSHSSSSSSFQFSSSSFQVGNGSALPTNDNSYRGILNPSQPGQSSSSSQTFGVSSSGQSVSSNQRPCSSDIPDSPCSGGPIVSHSGPYIPSSHSVSGGQRPVVVVVDQHGSGAPGVVQGPPCSNGGLPGKPCPPITSVDKSYGGYEVVGGSSDSYLVPGMTYSKGKIYPVGYFTKENPVKGSPGVPSFAAGPPISEGKYFSSNPIIPSQSAASSAIAFQPVGTGGVQLCGGGSTGSKGPCSPSSSRVPSSSSISSSSGLPYHPCGSASQSPCSPPGTGSFSSSSSSQSSGKIILQPCGSKSSSSGHPCMSVSSLTLTGGPDGSPHPDPSAGAKPCGSSSAGKIPCRSIRDILAQVKPLGPQLADPEVFLPQGELLNSP | 0 | 0 | 5 | 0
